Patent publication US20140057253, “METHOD TO PREDICT THE PATTERN OF LOCOMOTION IN HORSES” (CAPILET GENETICS AB, published 2014)

Tests used:
DMRT3 wild-type = DMRT3 wild-type (Equus caballus, UniProt F6W2R2 SEQ:1-474); assay: EMSA; 150x cold competitor used; on ice 20 min then room temperature 30 min; settings: tags: myc; label: 32P (Klenow fill-in with alpha-32P-dCTP)
Method: (§1) The oligonucleotide 5′-ggatcc[…]-3′ and its complementary sequence were annealed in 10 mM Tris pH 7.5, 1 mM EDTA, 50 mM KCl by firstly heating to 95° C. for 2 min and thereafter cooled to 25° C. (2 min/degree). The duplex was labelled with Klenow DNA polymerase and [α-32P]-dCTP and purified using a Bio-Rad Micro Bio-Spin 30 column. DMRT3 wild type and mutant protein were produced by in vitro-translation using a TNT Quick Coupled Transcription/Translation System (Promega). EMSA was performed as described by Culbertson & Leeds, 2003 (Looking at mRNA decay pathways through the window of molecular evolution. Curr. Opin. Genet. Dev. 13, 207-214) with the following modifications. No plasmid DNA was added and 1.0 μl in vitro-translated protein and 150× cold competitor were used. The reaction mixture was incubated on ice for 20 min before adding the radioactive oligo and thereafter incubated at room temperature for 30 min. Gels were run at 150 V in room temperature. […] It may therefore be a dominant negative form with normal DNA-binding but defective interaction with other proteins. This would be consistent with the clear phenotypic effects observed in heterozygotes. However, the mutation is not fully dominant as CA heterozygotes and AA homozygotes show distinct phenotypic differences.

[1] = biological target: DMRT3 Ser301STOP mutant (truncated, 300 aa) (Equus caballus, UniProt J7FCF0 SEQ:1-300); assay: EMSA; 150x cold competitor used; on ice 20 min then room temperature 30 min; truncation retains DNA binding; settings: tags: myc; label: 32P (Klenow fill-in with alpha-32P-dCTP)
Method: as §1

Chain of DMRT3 wild-type (F6W2R2 whole entry A151D): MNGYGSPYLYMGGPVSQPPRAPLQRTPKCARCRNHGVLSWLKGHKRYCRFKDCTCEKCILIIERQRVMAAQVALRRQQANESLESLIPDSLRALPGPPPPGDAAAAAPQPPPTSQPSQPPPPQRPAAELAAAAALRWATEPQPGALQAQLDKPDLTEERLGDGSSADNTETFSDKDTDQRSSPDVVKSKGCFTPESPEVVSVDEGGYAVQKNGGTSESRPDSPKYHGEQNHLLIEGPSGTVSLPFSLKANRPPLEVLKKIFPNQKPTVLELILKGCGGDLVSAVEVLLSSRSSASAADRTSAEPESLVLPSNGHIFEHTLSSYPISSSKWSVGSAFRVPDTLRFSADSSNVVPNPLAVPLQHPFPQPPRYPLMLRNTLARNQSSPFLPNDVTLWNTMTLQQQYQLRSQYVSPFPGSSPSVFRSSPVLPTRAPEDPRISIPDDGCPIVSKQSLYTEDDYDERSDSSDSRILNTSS
Chain of DMRT3 Ser301STOP mutant (truncated, 300 aa) (J7FCF0 other isoform, or with tags, fused parts or gaps mutant): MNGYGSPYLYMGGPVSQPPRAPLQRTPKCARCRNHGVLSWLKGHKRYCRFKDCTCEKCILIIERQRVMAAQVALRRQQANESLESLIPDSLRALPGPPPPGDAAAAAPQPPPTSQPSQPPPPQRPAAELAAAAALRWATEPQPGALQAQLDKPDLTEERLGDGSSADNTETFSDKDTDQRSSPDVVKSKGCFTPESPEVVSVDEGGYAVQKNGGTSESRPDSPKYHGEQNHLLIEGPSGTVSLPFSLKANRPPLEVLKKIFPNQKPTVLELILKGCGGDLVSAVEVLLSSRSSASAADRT

B1: DMRT-binding motif oligonucleotide (dsDNA)
DNA 1: GGATCCTCGAGAACAATGTAACAATTTCGCCC
DNA 2: GGGCGAAATTGTTACATTGTTCTCGAGGATCC
Q: Does B1 bind (DMRT3 wild-type)?
A: binds

Q: Does B1 bind [1]?
A: binds
